Data reported in article PMC8098473, “Structural basis of chitin utilization by a GH20 β-N-acetylglucosaminidase from Vibrio campbellii strain ATCC BAA-1116” (Acta Crystallographica. Section D, Structural Biology, 2021).

B1: VhGlcNAcase (Vibrio harveyi) (protein)
chain: MGGSEYRVDLVVLSEQKQNCRFGLTFHNLSDQDLNSWGLTFAFDRYILPDSVSNGQLTQIGSFCTLKPEGIVLAANHHYYCEFSIGSNPFRYYSDGFNEAMIDFVVDGQPQRAQVDVTPIVLASPYRERSDIPASLTHAQPLLPKPNHIEVSDHSFTFDEQAGVAIYTDLANSAKAWLLEELQRIHQFTLSSSNSGKIIFKSNPTLDEGAYKLKVSEESIKIEAGSSSGFTHACATLLQLLKRDEATKTMEAVCCSIIDSPRFRYRGMMLDCARHFHSVEQVKRLINLLAHYKLNTFHWHLTDDEGWRVEIKSLPQLTEIGAWRGIDETIEPQYTHLSQRYGGFYTQEEIRDVIAFAEQRGITIIPEIDVPGHCRAAIKSLPHLLIEAEDTTEYRSIQHYNDNVINPALPGSYEFIDKVLEEIAALFPAPYVHIGADEVPNGVWSKSPACQALMEQLGYTDYKELQGHFLRHAEDKLRKLGKRMLGWEEAQHGNKVSKDTVIYSWLSEEAALNCARQGFDVVLQPAQTTYLDMTQDYAPEEPGVDWANPLPLEKAYNYEPLAEVPADDPIRKRIWGIQTALWCEIINNPSRMDYMIFPRLTAMAEACWTEKQHRDWTDYLSRLKGHLPLLDLQGVNYRKPWK

Each molecule was assayed against T1, VhGlcNAcase (Vibrio harveyi, UniProt D9ISE0, D437A) (assay: colorimetric 4-nitrophenol release at […] nm, Michaelis-Menten fit). Details: 100 mM sodium phosphate pH 7.0, 37°C, 10 min, 0–500 µM substrate.
T1 construct: full-length nag2 (residues 1-642) plus C-terminal RSRS-His6 (10 extra residues), pQE-60, E. coli M15 (pREP4); 74 kDa expected, 76 kDa by SEC; monomer; EC 3.2.1.52
Type: biochemical
For CC(=O)N[C@H]1[C@H](Oc2ccc([N+](=O)[O-])cc2)O[C@H](CO)[C@@H](O)[C@@H]1O [pNP-GlcNAc, 4-nitrophenyl N-acetyl-β-D-glucosaminide], the Km was 390 ± 32 µM.

What follows are molecules tested on CC(=O)N[C@H]1[C@H](Oc2ccc([N+](=O)[O-])cc2)O[C@H](CO)[C@@H](O)[C@@H]1O (assay: purified protein). Details: 100 mM sodium phosphate pH 7.0, 37°C, 10 min, 0–500 µM substrate.
B1 showed a Km of 92 ± 6 µM.

System: CC(=O)N[C@H]1[C@H](Oc2ccc([N+](=O)[O-])cc2)O[C@H](CO)[C@@H](O)[C@@H]1O
Experiment: purified protein
Type: biochemical, Vibrio harveyi
Details: 100 mM sodium phosphate pH 7.0, 37°C, 10 min, 0–500 µM substrate
Remark: another data set of the same source
With VhGlcNAcase (Vibrio harveyi; D532A) the Km was 153 ± 9 µM and the kcat was 1.6 ± 0.03 s⁻¹. Work on VhGlcNAcase (Vibrio harveyi; D303N) yielded a Km of 325 ± 30 µM and a kcat of 1.8 ± 0.08 s⁻¹. Work on VhGlcNAcase (Vibrio harveyi; E438A) yielded a Km of 128 ± 16 µM and a kcat of 0.11 ± 0.005 s⁻¹. VhGlcNAcase (Vibrio harveyi; H373A) was tested, and the Km was 307 ± 31 µM and the kcat was 1.1 ± 0.06 s⁻¹. With VhGlcNAcase (Vibrio harveyi; D303A) the Km was 302 ± 28 µM and the kcat was 1.4 ± 0.07 s⁻¹. VhGlcNAcase (Vibrio harveyi; E584A) was tested, and the Km was 178 ± 20 µM and the kcat was 18 ± 0.7 s⁻¹. VhGlcNAcase (Vibrio harveyi; D437N) showed a Km of 339 ± 47 µM and a kcat of 0.02 ± 0.001 s⁻¹. In the case of VhGlcNAcase (Vibrio harveyi; E438Q), the Km is reported as 120 ± 13 µM and the kcat is reported as 0.13 ± 0.005 s⁻¹.
